46 substances from patent publication US12065471B2, “B*44 restricted peptides for use in immunotherapy against cancers and related methods” (Immatics Biotechnologies GmbH, priority 2018, dated 2024) can be followed below.

The experiment concerns the target HLA-B*44:05 (Homo sapiens, UniProt P01889, A223V/A65T/A93T/A95T/D201E/D98Y/E176V/E187L/E204Q/E69K/G107R/H137Y/K202T/L105A/L119I/N104T/N87E/Q56L/Q94N/R106L/R155S/R180D/S101N/S121R/S35A/S48T/T118I/V36M/W191S/Y91S). Briefly: MHC binding assay (UV-ligand exchange, β2m ELISA, peptide exchange yield). Particulars: binding to HLA-B*44:05. An excerpt: Candidate peptides for T cell-based therapies according to the present invention were further tested for their MHC binding capacity (affinity). The individual peptide-MHC complexes were produced by UV-ligand exchange, where a UV-sensitive peptide is cleaved upon UV-irradiation and exchanged with the peptide of interest as analyzed. Only peptide candidates that can effectively bind and stabilize the peptide-receptive MHC molecules prevent dissociation of the MHC complexes. To determine the yield of the exchange reaction, an ELISA was performed based on the detection of the light chain (β2m) of stabilized MHC complexes. The assay was performed as generally described in Rodenko et al. (Rodenko et al., 2006)
96 well MAXISorp plates (NUNC) were coated over night with 2 μg/ml streptavidin in PBS at room temperature, washed 4× and blocked for 1 h at 37° C. in 2% BSA containing blocking buffer. Refolded HLA-A*02:01/MLA-001 monomers served as standards, covering the range of 15-500 ng/ml. Peptide-MHC monomers of the UV-exchange reaction were diluted 100-fold in blocking buffer. Samples were incubated for 1h at 37° C., washed four times, incubated with 2 μg/ml HRP conjugated anti-β2m for 1h at 37° C., washed again and detected with TMB solution that is stopped with […]. Absorption was measured at 450 nm.
(In general: ELISA stands for enzyme-linked immunosorbent assay.)
Turning to “322 (REESDWHYL; listed as Homo sapiens) [compound 322]”, the “Peptide exchange (MHC class I binding score, peptide exchange yield)” value (shortened to “Peptide exchange”) is recorded as “+++ (>50 = +++)”.

In the case of “163 (AEDEDGKIVGY; listed as Homo sapiens) [compound 163]”, the “Peptide exchange” value is recorded as “++ (>20% = ++)”.

With “214 (SVNPIIYGF; listed as Homo sapiens) [compound 214]”, the “Peptide exchange” value is “++ (>20% = ++)”.

On to “134 (IEIKDRLQL; listed as Homo sapiens) [compound 134]”, for which the “Peptide exchange” value was “+++ (>50 = +++)”.

“405 (YEHAFNSIVW; listed as Homo sapiens) [compound 405]”: the “Peptide exchange” value is “++++ (>75% = ++++)”.

For “93 (SEAGLTANQY; listed as Homo sapiens) [compound 93]”, the “Peptide exchange” value is recorded as “+++ (>50 = +++)”.

Take “199 (AELPENLKALF; listed as Homo sapiens) [compound 199]”: the “Peptide exchange” value is reported as “+++ (>50 = +++)”.

For “171 (WEVVHTVF; listed as Homo sapiens) [compound 171]”, the “Peptide exchange” value is listed as “++ (>20% = ++)”.

Take “233 (QEDKATQTL; listed as Homo sapiens) [compound 233]”: the “Peptide exchange” value is given as “++++ (>75% = ++++)”.

Turning to “381 (QELMAFSFAGL; listed as Homo sapiens) [compound 381]”, the “Peptide exchange” value is recorded as “++++ (>75% = ++++)”.

As for “305 (AEKNRRDAETW; listed as Homo sapiens) [compound 305]”, the “Peptide exchange” value is “++++ (>75% = ++++)”.

In the case of “165 (EEIEAHIAL; listed as Homo sapiens) [compound 165]”, the “Peptide exchange” value is “+++ (>50 = +++)”.

As to “366 (EECGKAFKKF; listed as Homo sapiens) [compound 366]”, the “Peptide exchange” value is “+++ (>50 = +++)”.

On to “172 (RENPGMFSW; listed as Homo sapiens) [compound 172]”, for which the “Peptide exchange” value is on record as “+++ (>50 = +++)”.

Take “427 (AEMLGSVVGNW; listed as Homo sapiens) [compound 427]”: the “Peptide exchange” value is reported as “+++ (>50 = +++)”.

In the case of “265 (EDNLIHKF; listed as Homo sapiens) [compound 265]”, the “Peptide exchange” value is listed as “++ (>20% = ++)”.

Regarding “333 (SEGTLPYSY; listed as Homo sapiens) [compound 333]”, the “Peptide exchange” value was “++ (>20% = ++)”.

Turning to “445 (QEVGEITNL; listed as Homo sapiens) [compound 445]”, the “Peptide exchange” value is “+++ (>50 = +++)”.

“141 (SEKWFRMGF; listed as Homo sapiens) [compound 141]”: the “Peptide exchange” value was “+++ (>50 = +++)”.

For the substance “154 (NEAGEMIKHY; listed as Homo sapiens) [compound 154]”, the “Peptide exchange” value is “++ (>20% = ++)”.

Regarding “187 (TEQALRLSV; listed as Homo sapiens) [compound 187]”, the “Peptide exchange” value was “++++ (>75% = ++++)”.

For the substance “298 (KEVASNSEL; listed as Homo sapiens) [compound 298]”, the “Peptide exchange” value is reported as “+++ (>50 = +++)”.

Take “218 (REAEEKEAQL; listed as Homo sapiens) [compound 218]”: the “Peptide exchange” value was “+++ (>50 = +++)”.

Consider “394 (SEILRVTLY; listed as Homo sapiens) [compound 394]”, for which the “Peptide exchange” value was “+++ (>50 = +++)”.

For “426 (AESLFREAL; listed as Homo sapiens) [compound 426]”, the “Peptide exchange” value was “+++ (>50 = +++)”.

On to “119 (VEVKYEGHW; listed as Homo sapiens) [compound 119]”, for which the “Peptide exchange” value is “++++ (>75% = ++++)”.

Turning to “414 (AEGYLDLDGI; listed as Homo sapiens) [compound 414]”, the “Peptide exchange” value is reported as “++ (>20% = ++)”.

“355 (SETSTGTSV; listed as Homo sapiens) [compound 355]”: the “Peptide exchange” value is reported as “++ (>20% = ++)”.

In the case of “76 (RLNEHPSNNW; listed as Homo sapiens) [compound 76]”, the “Peptide exchange” value was “++ (>20% = ++)”.

“208 (SEFLLRIF; listed as Homo sapiens) [compound 208]”: the “Peptide exchange” value is “++ (>20% = ++)”.

“166 (EEQDFINNRY; listed as Homo sapiens) [compound 166]”: the “Peptide exchange” value is recorded as “++++ (>75% = ++++)”.

“128 (TELTEARVQVW; listed as Homo sapiens) [compound 128]”: the “Peptide exchange” value was “+++ (>50 = +++)”.

Turning to “384 (LDGIPTAGW; listed as Homo sapiens) [compound 384]”, the “Peptide exchange” value was “+++ (>50 = +++)”.

“181 (HEVAQDDHL; listed as Homo sapiens) [compound 181]”: the “Peptide exchange” value was “++ (>20% = ++)”.

On to “390 (GEYNKHAQLW; listed as Homo sapiens) [compound 390]”, for which the “Peptide exchange” value was “++++ (>75% = ++++)”.

For “313 (EEINQGGRKY; listed as Homo sapiens) [compound 313]”, the “Peptide exchange” value is on record as “+++ (>50 = +++)”.

In the case of “112 (AEIEADRSYQH; listed as Homo sapiens) [compound 112]”, the “Peptide exchange” value was “+++ (>50 = +++)”.

In the case of “456 (SESPIRISV; listed as Homo sapiens) [compound 456]”, the “Peptide exchange” value is “+++ (>50 = +++)”.

Consider “403 (QESVHVASY; listed as Homo sapiens) [compound 403]”, for which the “Peptide exchange” value is given as “++++ (>75% = ++++)”.

Consider “353 (AETEEGIYW; listed as Homo sapiens) [compound 353]”, for which the “Peptide exchange” value was “++++ (>75% = ++++)”.

Consider “347 (LENPHVQSV; listed as Homo sapiens) [compound 347]”, for which the “Peptide exchange” value was “+++ (>50 = +++)”.

Regarding “455 (QESVHVASYYW; listed as Homo sapiens) [compound 455]”, the “Peptide exchange” value is “++++ (>75% = ++++)”.

Turning to “334 (LEWQNSSSM; listed as Homo sapiens) [compound 334]”, the “Peptide exchange” value is given as “+++ (>50 = +++)”.

As to “177 (LEEPMPFFY; listed as Homo sapiens) [compound 177]”, the “Peptide exchange” value is “+ (>10% = +)”.

As for “281 (HEIPQESL; listed as Homo sapiens) [compound 281]”, the “Peptide exchange” value was “+ (>10% = +)”.

As for “126 (SEASQSPQY; listed as Homo sapiens) [compound 126]”, the “Peptide exchange” value is reported as “+++ (>50 = +++)”.
